# Results published in IntAct's records for PubMed 18256029.
# B1: Programmed cell death protein 6 (Homo sapiens), O75340 (parent)
# chain: MAAYSYRPGPGAGPGPAAGAALPDQSFLWNVFQRVDKDRSGVISDTELQQALSNGTWTPFNPVTVRSIISMFDRENKAGVNFSEFTGVWKYITDWQNVFRTYDRDNSGMIDKNELKQALSGFGYRLSDQFHDILIRKFDRQGRGQIAFDDFIQGCIVLQRLTDIFRRYDTDQDGWIQVSYEQYLSMVFSIV
# partner: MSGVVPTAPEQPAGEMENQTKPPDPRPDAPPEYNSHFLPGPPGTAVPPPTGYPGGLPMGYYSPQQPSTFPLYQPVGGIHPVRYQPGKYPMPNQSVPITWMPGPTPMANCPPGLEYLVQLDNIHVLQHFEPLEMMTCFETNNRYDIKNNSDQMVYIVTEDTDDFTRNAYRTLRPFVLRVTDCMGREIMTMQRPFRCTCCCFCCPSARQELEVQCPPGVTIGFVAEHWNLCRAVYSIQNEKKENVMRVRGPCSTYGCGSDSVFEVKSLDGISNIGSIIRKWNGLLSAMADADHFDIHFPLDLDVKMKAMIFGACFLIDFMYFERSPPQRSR
# B2: Programmed cell death protein 6 (Homo sapiens), O75340 (parent)
# chain: B1 chain
# B3: Programmed cell death protein 6 (Homo sapiens), O75340 (parent)
# chain: B1 chain
# partner: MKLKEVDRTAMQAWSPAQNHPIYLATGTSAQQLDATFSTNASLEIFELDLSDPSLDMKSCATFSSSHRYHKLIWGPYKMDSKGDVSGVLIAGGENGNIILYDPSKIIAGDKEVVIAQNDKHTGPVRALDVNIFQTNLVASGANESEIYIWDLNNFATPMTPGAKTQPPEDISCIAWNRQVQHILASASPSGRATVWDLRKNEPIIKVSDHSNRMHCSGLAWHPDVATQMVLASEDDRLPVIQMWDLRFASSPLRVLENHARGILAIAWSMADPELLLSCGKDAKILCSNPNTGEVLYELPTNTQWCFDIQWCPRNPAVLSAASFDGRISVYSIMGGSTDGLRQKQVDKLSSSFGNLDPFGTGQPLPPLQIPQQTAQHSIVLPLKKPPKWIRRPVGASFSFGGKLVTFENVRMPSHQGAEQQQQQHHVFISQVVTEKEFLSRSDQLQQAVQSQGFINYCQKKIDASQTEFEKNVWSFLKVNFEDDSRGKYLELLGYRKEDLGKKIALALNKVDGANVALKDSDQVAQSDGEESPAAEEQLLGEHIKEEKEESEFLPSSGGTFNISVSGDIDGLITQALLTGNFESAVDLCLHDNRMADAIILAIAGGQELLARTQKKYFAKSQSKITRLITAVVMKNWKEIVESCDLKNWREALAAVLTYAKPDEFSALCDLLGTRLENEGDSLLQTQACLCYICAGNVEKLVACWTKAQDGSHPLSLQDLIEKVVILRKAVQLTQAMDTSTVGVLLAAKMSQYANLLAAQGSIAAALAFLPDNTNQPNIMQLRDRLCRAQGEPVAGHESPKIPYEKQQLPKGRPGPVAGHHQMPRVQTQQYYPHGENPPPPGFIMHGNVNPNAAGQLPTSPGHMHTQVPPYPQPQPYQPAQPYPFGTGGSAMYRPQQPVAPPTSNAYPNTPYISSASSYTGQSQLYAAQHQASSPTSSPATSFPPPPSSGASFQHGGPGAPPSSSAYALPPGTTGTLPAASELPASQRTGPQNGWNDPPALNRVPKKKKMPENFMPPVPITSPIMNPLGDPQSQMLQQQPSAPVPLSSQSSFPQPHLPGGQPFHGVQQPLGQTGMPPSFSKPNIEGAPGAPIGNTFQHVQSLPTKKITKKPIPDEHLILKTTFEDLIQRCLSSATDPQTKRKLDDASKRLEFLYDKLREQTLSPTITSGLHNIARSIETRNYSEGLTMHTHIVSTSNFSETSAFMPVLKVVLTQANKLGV
# B4: Programmed cell death protein 6 (Homo sapiens), O75340 (parent)
# chain: B1 chain
# partner: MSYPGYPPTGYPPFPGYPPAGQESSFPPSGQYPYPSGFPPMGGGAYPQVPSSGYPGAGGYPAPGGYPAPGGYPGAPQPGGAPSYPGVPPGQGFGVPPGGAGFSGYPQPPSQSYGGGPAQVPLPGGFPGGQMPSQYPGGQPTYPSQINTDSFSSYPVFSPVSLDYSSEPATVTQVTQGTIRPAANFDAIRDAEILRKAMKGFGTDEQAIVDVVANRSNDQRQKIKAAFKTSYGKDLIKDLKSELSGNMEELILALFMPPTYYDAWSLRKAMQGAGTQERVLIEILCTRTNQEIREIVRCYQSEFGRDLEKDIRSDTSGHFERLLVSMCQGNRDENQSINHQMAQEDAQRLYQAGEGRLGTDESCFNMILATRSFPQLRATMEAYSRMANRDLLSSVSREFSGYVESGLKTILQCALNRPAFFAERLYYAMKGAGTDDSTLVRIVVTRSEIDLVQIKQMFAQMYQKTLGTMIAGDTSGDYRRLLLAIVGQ
# Variants of: B1
# Details: with pls4_human PLSCR4, Q9NRQ2
row,Variant,effect of a mutation on the interaction
1,E47A;E114A,decreasing interaction

# Variants of: B2
# Details: with pls3_human PLSCR3, Q9NRY6
# Chain of pls3_human PLSCR3, Q9NRY6 (Q9NRY6 whole entry): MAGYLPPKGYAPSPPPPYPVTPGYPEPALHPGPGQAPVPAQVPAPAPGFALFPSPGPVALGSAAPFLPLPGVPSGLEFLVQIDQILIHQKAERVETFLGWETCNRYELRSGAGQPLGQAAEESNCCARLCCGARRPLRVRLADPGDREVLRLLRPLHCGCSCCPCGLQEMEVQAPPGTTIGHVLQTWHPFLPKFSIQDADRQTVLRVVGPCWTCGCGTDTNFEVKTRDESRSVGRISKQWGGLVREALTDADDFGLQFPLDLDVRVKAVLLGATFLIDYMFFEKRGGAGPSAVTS
row,Variant,effect of a mutation on the interaction
1,W57A,decreasing interaction
2,Y91A,disrupting interaction
3,Y180A,disrupting interaction
4,F60A,disrupting interaction
5,W95A,disrupting interaction

# Variants of: B2
# Details: with pdc6i_human PDCD6IP
row,Variant,effect of a mutation on the interaction
1,W57A,decreasing interaction
2,Y91A,disrupting interaction
3,Y180A,disrupting interaction
4,F60A,disrupting interaction
5,W95A,disrupting interaction

# Variants of: B2
# Details: with anx11_human ANXA11, P50995
# Chain of anx11_human ANXA11, P50995 (P50995 whole entry): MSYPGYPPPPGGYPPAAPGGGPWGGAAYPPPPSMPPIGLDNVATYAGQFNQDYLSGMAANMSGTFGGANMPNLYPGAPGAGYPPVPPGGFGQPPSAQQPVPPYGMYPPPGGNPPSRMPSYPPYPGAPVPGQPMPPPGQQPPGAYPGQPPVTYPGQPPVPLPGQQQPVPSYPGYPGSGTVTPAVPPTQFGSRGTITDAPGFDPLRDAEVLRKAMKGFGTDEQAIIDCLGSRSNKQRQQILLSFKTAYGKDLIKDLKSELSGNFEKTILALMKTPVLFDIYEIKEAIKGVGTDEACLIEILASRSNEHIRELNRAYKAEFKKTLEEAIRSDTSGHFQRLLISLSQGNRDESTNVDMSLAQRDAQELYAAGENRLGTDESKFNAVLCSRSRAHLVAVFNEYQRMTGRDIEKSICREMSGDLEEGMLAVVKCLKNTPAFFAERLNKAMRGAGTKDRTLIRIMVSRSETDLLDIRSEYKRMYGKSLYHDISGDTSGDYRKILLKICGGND
row,Variant,effect of a mutation on the interaction
1,W57A,decreasing interaction
2,Y91A,disrupting interaction
3,Y180A,disrupting interaction
4,F60A,disrupting interaction
5,W95A,disrupting interaction

# Variants of: B2
# Details: with pls3_human PLSCR3, Q9NRY6
# Remark: another data set of the same source
row,Variant,effect of a mutation on the interaction
1,E47A;E114A,decreasing interaction

# Variants of: B2
# Details: with ts101_human TSG101, Q99816
# Chain of ts101_human TSG101, Q99816 (Q99816 whole entry): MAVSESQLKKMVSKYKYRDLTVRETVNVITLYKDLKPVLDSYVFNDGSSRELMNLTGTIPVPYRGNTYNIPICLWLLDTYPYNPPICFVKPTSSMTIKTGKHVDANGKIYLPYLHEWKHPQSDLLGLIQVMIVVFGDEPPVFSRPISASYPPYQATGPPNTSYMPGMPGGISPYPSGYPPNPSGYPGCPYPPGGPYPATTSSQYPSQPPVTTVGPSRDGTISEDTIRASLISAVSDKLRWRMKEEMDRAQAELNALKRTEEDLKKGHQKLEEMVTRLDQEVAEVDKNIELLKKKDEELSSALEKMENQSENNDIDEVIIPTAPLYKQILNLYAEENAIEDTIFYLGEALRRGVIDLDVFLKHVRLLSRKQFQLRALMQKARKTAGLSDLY
row,Variant,effect of a mutation on the interaction
1,Y180A,disrupting interaction
2,W95A,disrupting interaction

# Variants of: B3
# Details: with sc31a_human SEC31A
row,Variant,effect of a mutation on the interaction
1,F60A,disrupting interaction

# Variants of: B4
# Details: with anxa7_human ANXA7, P20073
row,Variant,effect of a mutation on the interaction
1,W95A,disrupting interaction
2,Y180A,disrupting interaction
3,F60A,disrupting interaction
4,Y91A,disrupting interaction
5,W57A,decreasing interaction
